Data: patent publication US20170058005A1 (priority 2014, published 2017)
Where no end group is shown, it is not given here.

Key:
DRB1*0101 (DR1) = DRB1*0101 (DR1) (Homo sapiens, UniProt P01903+P01911, A100R/D57E/F55L/F60I/F76Y/I96L/L162R/M171V/P40L/Q125E/R42F/V115G/Y59C); type: binding
DRB1*0301 (DR3) = DRB1*0301 (DR3) (Homo sapiens, UniProt P01903+P01911, A100K/A102G/A103R/A169T/F55Y/I96L/K41T/L162R/M171V/P40S/Q125H/Q178H/Q39Y/R42S/S66N/T106N/T262R/W38E/Y61H); type: binding
DRB1*0401 (DR4) = DRB1*0401 (DR4) (Homo sapiens, UniProt P01903+P01911, A100K/A169T/F76Y/I96L/K127E/L162R/M171V/N62H/P40V/Q125Y/R42H/S133A/S149N/S66Y/V115G/V209L/W38E); type: binding
DRB1*0701 (DR7) = DRB1*0701 (DR7) (Homo sapiens, UniProt P01903+P01911, A100R/A102G/A103Q/D57E/D86V/E43K/F76Y/K127E/L162R/M171V/P40G/Q125H/Q99D/R33Q/R42Y/R54Q/S133A/S66F/T210M/V115G/Y107V/Y59L/Y89S); type: binding
DRB1*1101 (DR11) = DRB1*1101 (DR11) (Homo sapiens, UniProt P01903+P01911, A100R/A169T/A87E/I96F/K41T/L162R/M171V/P40S/Q125H/Q178H/Q39Y/Q99D/R42S/S66Y/T262R/V115G/W38E); type: binding
DRB1*1301 (DR13) = DRB1*1301 (DR13) (Homo sapiens, UniProt P01903+P01911, A100E/A169T/K41T/L162R/M171V/P40S/Q125H/Q178H/Q39Y/Q99D/R42S/S66N/T262R/W38E/Y61H); type: binding
DRB1*1501 (DR15) = DRB1*1501 (DR15) (Homo sapiens, UniProt P01903+P01911); type: binding
[1] = system: CD4^+ T cells of HLA class II transgenic mice; type: cell-based

Sequence	Relative binding affinity of peptide to HLA-DR molecules, DR1 (DRB1*0101 (DR1))	Relative binding affinity of peptide to HLA-DR molecules, DR3 (DRB1*0301 (DR3))	Relative binding affinity of peptide to HLA-DR molecules, DR4 (DRB1*0401 (DR4))	Relative binding affinity of peptide to HLA-DR molecules, DR7 (DRB1*0701 (DR7))	Relative binding affinity of peptide to HLA-DR molecules, DR11 (DRB1*1101 (DR11))	Relative binding affinity of peptide to HLA-DR molecules, DR13 (DRB1*1301 (DR13))	Relative binding affinity of peptide to HLA-DR molecules, DR15 (DRB1*1501 (DR15))	HLA-restriction based on CD4 T cell response class II HLA transgenics after priming with LF [1]	CD4 T cell response in LF immunized HLA transgenics [1]	IC50 (DRB1*1301 (DR13); read-out: IC50 of reference peptide) [nM]
LLFTNQLKEHPTDFSVEFLE	909	>76	6	51	148	>172	193	DQ8		
RNKTQEEHLKEIMKHIVKIE	4810	>76	>1 539	77	2	8	>2 184	DQ8		
KLITFNVHNRYASNIVESAY	35	0.4	3	72	7	0.5	5	DR1, DR4		
SKKFIDIFKEEGSNLTSYGR	4	474	0.2	302	0.4	1,225	1	DR4	HLA-DR4 and HLA-DR15 restricted	
AVDDYAGYLLDKNQSDLVTN	1,380	42	10	1,789	55	>2 733	0.1	DR4, DR15	HLA-DR4 and HLA-DR15 restricted	
YVYAKEGYEPVLVIQSSEDY	771	>238	555	1182	14	3	>262	DR1, DQ8		
TERVRLVTRHIYNREE [B1 21-36, reference compound]										37
PEAFNYMDKFNEQEINLSLE	2156	>76	2	42	2	>172	463	DQ8		
EIMKHIVKIEVKGEEAVKKE	243	50	567	249	4	19	329	DQ8		
YGKDALLHEHYVYAKEGYEP	199	>76	168	441	9	6	4000	DQ8		
YYEIGKILSRDILSKINQPY	69	3	19	4	0.4	5	43	DQ8		
IGLEIKDVQIIKQSEKEYIRIDAKVVP	1	2	919	7	73	24	1	DR1, DR15		
PKSKIDTKIQEAQLNINQEW [LF584-603]									did not induce any response in any of the HLA transgenics	
YLVDGNGRFVFTDITLPNIA	123	0.3	0.3	19	45	>2 733	2	DR4	elicited a T cell response in a single HLA transgenic strain	
VLVIQSSEDYVENTEKALNV	1702	82	29	66	168	>172	958	DR1		
DTGGLIDSPSINLDVRKQYK	866	0.3	935	15	179	8	130	DR15		
NEQEINLSLEELKDQRMLSR [LF 281-300]									did not induce a response in any of the HLA transgenics	
